We go through one protein from patent US7687614 (University of California, dated 2010).

The data set deals with the molecule itself. In words: SDS-PAGE not boiled, fluorescence imaging of the gel.

B1: tdimer2(12) (tandem dimer of dimer2 with the 12 residue linker) (other)
chain: MRGSHHHHHHGMASMTGGQQMGRDLYDDDDKDPMVASSEDVIKEFMRFKVRMEGSVNGHEFEIEGEGEGRPYEGTQTAKLKVTKGGPLPFAWDILSPQFQYGSKAYVKHPADIPDYKKLSFPEGFKWERVMNFEDGGVVTVTQDSSLQDGTLIYKVKFRGTNFPPDGPVMQKKTMGWEASTERLYPRDGVLKGEIHQALKLKDGGHYLVEFKTIYMAKKPVQLPGYYYVDTKLDITSHNEDYTIVEQYERSEGRHHLFLGHGTGSTGSGSSMVASSEDVIKEFMRFKVRMEGSVNGHEFEIEGEGEGRPYEGTQTAKLKVTKGGPLPFAWDILSPQFQYGSKAYVKHPADIPDYKKLSFPEGFKWERVMNFEDGGVVTVTQDSSLQDGTLIYKVKFRGTNFPPDGPVMQKKTMGWEASTERLYPRDGVLKGEIHQALKLKDGGHYLVEFKTIYMAKKPVQLPGYYYVDTKLDITSHNEDYTIVEQYERSEGRHHLFL
notes: Exact junctions (SphI/SacI sites, start Met of second copy) are not spelled out
B1: the binding result is “binds”.
